Assay results taken from CN117545770A (HOFFMANN LA ROCHE, dated 2024).
Each block holds one binder with its values, some of them ahead of it.

Key:
[1] = molecular target: T1, 重组单链HLA-G单体/人HLA-Gβ2M MHC I类复合物 (SEQ ID NO:39) (human); assay: SPR Biacore T200, 25 °C, multi-cycle kinetics; antibody captured by anti-hFc on CM3 chip, HLA-G complex as analyte; 1:1 Langmuir
T1 construct: also called wt-HLA-G复合物; wt-HLA-G抗原

[2] = molecular target: T1, 重组单链HLA-G单体/人HLA-Gβ2M MHC I类复合物 (SEQ ID …); assay: SPR multi-cycle kinetics

t1/2 [1]: 6.5 min
B1: HLA-G-0090 (antibody, IgG1, V domains shown)
VH: QVQLQQSGPGLLKPSQTLSLTCAISGDSVSSNRAAWNWIRQSPSRGLEWLGRTYYRSKWYNDYAVSVQGRITLIPDTSKNQFSLRLNSVTPEDTAVYYCASVRAVAPFDYWGQGVLVTVSS
VL: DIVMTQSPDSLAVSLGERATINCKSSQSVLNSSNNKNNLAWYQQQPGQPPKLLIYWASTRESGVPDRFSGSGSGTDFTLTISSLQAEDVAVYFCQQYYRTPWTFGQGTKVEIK
modifications: N-glycosylation at the NSS motif of CDR-L1 (LC positions 31-33; Fab glycosylation found by mass spectrometry); N-glycosylation in CDR-L1 (NSS motif, LC 31-33) is on the light chain, not on this chain
notes: also called 亲代抗体HLA-G-0090

t1/2 [1]: 3.13 min
fold decrease of binding affinity against HLA-G-0090 [2]: 2 fold
B2: HLA-G-0090-VL-S33P (antibody, IgG1, V domains shown)
VH: B1 VH
VL: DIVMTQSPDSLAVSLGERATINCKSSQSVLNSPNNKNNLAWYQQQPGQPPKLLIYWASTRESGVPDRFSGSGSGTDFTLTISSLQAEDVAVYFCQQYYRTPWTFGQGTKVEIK
notes: IgG1 format, HEK293F; also called HLA-G-0090-S33P

t1/2 [1]: 7.76 min
B3: HLA-G-0090-VL-S33A (antibody, V domains shown)
VH: B1 VH
VL: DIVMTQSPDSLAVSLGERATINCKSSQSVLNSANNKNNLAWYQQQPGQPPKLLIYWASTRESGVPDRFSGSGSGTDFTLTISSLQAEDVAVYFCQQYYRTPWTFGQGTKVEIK
notes: also called HLA-G-0090-S33A

t1/2 [1]: 1.73 min
fold decrease of binding affinity against HLA-G-0090 [2]: 5 fold
B4: HLA-G-0090-VL-S33D (antibody, IgG1, V domains shown)
VH: B1 VH
VL: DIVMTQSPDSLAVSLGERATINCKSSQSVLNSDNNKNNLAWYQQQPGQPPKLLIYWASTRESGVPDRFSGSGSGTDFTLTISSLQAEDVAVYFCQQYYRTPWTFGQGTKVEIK
notes: IgG1 format, HEK293F; also called HLA-G-0090--S33D

t1/2 [1]: 7.34 min
B5: HLA-G-0090-VL-S32P (antibody, V domains shown)
VH: B1 VH
VL: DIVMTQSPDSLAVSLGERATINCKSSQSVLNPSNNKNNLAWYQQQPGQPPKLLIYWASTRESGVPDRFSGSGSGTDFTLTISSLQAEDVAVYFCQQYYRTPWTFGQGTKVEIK
notes: also called HLA-G-0090-S32P
